# Test results from PMC3936710.
# Several values for one entry are separate records, joined by “and”; a condition that tells them apart may be missing. Identical values can stand only once.
# Assays:
# TRF2ΔB [1] = biological target: T1, TRF2ΔB (UniProt Q15554); experiment: single-molecule DNA tightrope; conditions: 125 mM ionic strength; Tightrope assays at 75-225 mM ionic strength (buffer, pH and temperature not in the material); AFM samples diluted 10-fold in 25 mM NaOAc, 25 mM HEPES-KOH pH 7.
# T1 sequence: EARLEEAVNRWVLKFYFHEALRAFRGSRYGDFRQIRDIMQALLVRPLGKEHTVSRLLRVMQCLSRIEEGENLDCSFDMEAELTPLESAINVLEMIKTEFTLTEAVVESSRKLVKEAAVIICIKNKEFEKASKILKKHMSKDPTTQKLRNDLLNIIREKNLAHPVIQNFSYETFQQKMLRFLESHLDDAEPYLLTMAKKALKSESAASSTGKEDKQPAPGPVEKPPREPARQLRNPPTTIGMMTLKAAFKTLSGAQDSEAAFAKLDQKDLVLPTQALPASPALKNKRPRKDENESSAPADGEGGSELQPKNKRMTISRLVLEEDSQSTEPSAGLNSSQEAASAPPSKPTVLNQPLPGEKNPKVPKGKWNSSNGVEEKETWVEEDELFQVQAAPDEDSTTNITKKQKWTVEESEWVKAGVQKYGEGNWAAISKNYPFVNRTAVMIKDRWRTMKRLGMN
# TRF2ΔB [2] = biological target: T1, TRF2ΔB; experiment: AFM; conditions: linear T270; Tightrope assays at 75-225 mM ionic strength (buffer, pH and temperature not in the material); AFM samples diluted 10-fold in 25 mM NaOAc, 25 mM HEPES-KOH pH 7.
# TRF1 = biological target: T2, TRF1 (UniProt P54274); experiment: single-molecule DNA tightrope; conditions: Tightrope assays at 75-225 mM ionic strength (buffer, pH and temperature not in the material); AFM samples diluted 10-fold in 25 mM NaOAc, 25 mM HEPES-KOH pH 7.
# T2 sequence: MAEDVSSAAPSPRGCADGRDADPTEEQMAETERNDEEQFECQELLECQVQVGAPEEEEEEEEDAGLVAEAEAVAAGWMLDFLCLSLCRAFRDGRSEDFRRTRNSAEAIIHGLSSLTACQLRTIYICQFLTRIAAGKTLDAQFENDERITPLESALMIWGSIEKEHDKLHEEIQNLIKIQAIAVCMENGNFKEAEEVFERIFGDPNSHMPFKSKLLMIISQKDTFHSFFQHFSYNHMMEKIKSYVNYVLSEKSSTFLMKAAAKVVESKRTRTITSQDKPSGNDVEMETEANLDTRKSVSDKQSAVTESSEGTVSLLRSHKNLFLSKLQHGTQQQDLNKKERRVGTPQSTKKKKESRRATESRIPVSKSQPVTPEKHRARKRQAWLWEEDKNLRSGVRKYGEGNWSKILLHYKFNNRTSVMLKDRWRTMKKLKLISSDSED
# TRF2 = biological target: T3, TRF2 (UniProt Q15554); experiment: single-molecule DNA tightrope; conditions: Tightrope assays at 75-225 mM ionic strength (buffer, pH and temperature not in the material); AFM samples diluted 10-fold in 25 mM NaOAc, 25 mM HEPES-KOH pH 7.
# T3 sequence: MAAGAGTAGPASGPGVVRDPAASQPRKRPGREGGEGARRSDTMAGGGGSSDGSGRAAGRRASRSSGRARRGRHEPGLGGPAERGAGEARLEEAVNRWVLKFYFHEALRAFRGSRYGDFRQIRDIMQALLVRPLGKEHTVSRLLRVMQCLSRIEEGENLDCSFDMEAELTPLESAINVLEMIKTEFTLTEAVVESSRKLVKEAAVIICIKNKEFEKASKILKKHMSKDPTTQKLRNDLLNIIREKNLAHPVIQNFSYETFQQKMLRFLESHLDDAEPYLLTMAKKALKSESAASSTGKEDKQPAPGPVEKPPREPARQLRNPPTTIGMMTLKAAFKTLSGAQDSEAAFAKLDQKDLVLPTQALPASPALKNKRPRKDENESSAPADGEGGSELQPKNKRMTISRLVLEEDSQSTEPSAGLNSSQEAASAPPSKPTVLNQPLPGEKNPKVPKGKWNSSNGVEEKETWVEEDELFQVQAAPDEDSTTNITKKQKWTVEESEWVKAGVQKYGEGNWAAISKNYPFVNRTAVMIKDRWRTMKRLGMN
# TRF1 Myb domain = experiment: cited; conditions: Tightrope assays at 75-225 mM ionic strength (buffer, pH and temperature not in the material); AFM samples diluted 10-fold in 25 mM NaOAc, 25 mM HEPES-KOH pH 7.; cited from earlier work
# TRF2 Myb domain = experiment: cited; conditions: Tightrope assays at 75-225 mM ionic strength (buffer, pH and temperature not in the material); AFM samples diluted 10-fold in 25 mM NaOAc, 25 mM HEPES-KOH pH 7.; cited from earlier work
substance,measurement,setting,value
lambda DNA,binding signal (QDs per field of view (TRF2 13.3)),TRF2ΔB [1],1.4
T270 telomeric region (TTAGGG)270,binding signal (% of DNA-bound QDs at telomeric region),TRF2ΔB [2],66
same,binding signal (s (attached lifetime)),TRF1,17.3 and 9.2
same,binding signal (s (attached lifetime)),TRF2,14.8 and 10.3
telomeric DNA of cited Myb domain study,Kd,TRF1 Myb domain,200 nM
same,Kd,TRF2 Myb domain,750 nM
TTAGGGTTAGGGTTAGGGTTAGGGTTAGGGTTAGGGTTAGGGTTAGGGTTAGGGTTAGGG (double strand) [Tel10 telomeric region (TTAGGG)10],binding signal (s (attached lifetime)),TRF2,6.7
